Reference: patent publication US20100216693A1, “COMPOSITIONS AND METHODS OF TREATING DIABETES” (priority 2005, published 2010)
“Also recorded” adds a separate entry of the source.

Tests used:
[1] = target: T1, insulin-insulin interaction (Homo sapiens, UniProt P01308); test: SPR: effect of substances mixed with insulin in solution on insulin-insulin interaction; format: binding; details: for effect on insulin-insulin interaction when injected along with insulin: 1:5 molar ratio
T1 construct: 28; purchased Novo Nordisk A/S, Denmark Actrapid
T1 sequence (P01308 25-54 limits assumed): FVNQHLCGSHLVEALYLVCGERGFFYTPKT
T1 sequence (P01308 90-110 limits assumed): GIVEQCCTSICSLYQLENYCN
Method: BiacorA Biacore 3000 instrument was employed for the interaction measurements based on surface plasmon resonance (SPR). Interaction analyses were performed at 25° C. in 10 mM Na-citrate buffers pH 3, 4, 5, 10 mM bis-Tris, pH 6, and 10 mM Tris/HC1, pH 7, all buffers containing 100 mM NaCl and 0.005% 5P20. Flow rates for the binding analyses were kept at 20 μl/min. […] Insulin was immobilized on a carboxymethyl-modified dextran surface via both amine and carboxyl coupling, using the surface thiol method, in two different lanes of Biacore CM5 chips. The immobilization was carried out according to the procedure described in the kits. In brief, the sensor chip surface was first washed with 4 M LiCl/HBS for 1 min and then with 0.2% SP20/HBS for 1 mM. The surface was activated according to standard procedure with an injection of 0.05 M NHS/0.2 M EDC for 7 min. Desalted insulin solution was diluted in acetate buffer, pH 4.5, to 20 μg/ml and injected at 50/min for different time intervals. For surface thiol coupling, the surface was first activated with 0.05 M NHS/0.2 M EDC for 2 min followed by a 3 min injection of 40 mM cystamine dihydrochloride and then 0.1 M DTE for 3 min. […] The mixture was incubated for 10 mM at room temperature and excess PDEA was removed on a NAP-10 column. The purified PDEA ligand was injected for 7 min, soon after DTE, and finally the surface was washed with 20 mM PDEA in 0.1 M sodium acetate, 1.0 M NaCl. For quick regeneration of the surface, 2 M guanidine-HC1, pH 6.4, was employed. For controls, lanes activated and deactivated according to the standard procedures were used. For subtraction of noise from the data, running buffer only was injected to all surfaces. For the C-terminal attachment, surface-thiol coupling to 4000-5000 RU was used, and for N-terminal attachment, amine coupling to 800-1000 RU as achieved on different CM5 chips. However for kinetic analysis immobilization was carried out in a controlled condition and around 1000 RU for C-terminal and 400 RU for N-terminal coupling were immobilized. A surface activated with EDC/NHS and deactivated with ethanolamine was used as a control surface for N-terminally immobilized insulin and a surface treated with EDC/NHS, cysteine/DTE and finally deactivated with PDEA-NaCl was used as a control for C-terminally immobilized insulin. Biacore data were analyzed with Bia-evaluation software 4.1. All calculations based on numerical approaches, including simulations and global curve fitting for estimates of active concentrations, were performed with IGOR Pro (version 4.01.A, WaveMetrics, Inc.). However, C-peptide, mixed with insulin in solution, influences the insulin-insulin monomer interactions measured above. […] This elevated interaction can be seen at different pH from 3-7. The phenomenon of more pronounced interaction was clearer when concentrations higher than 0.5 μM were used then below 0.5 μM. […] All concentrations were run in triplicates and in random order.

[2] = target: T2, insulin immobilized on the surface of CM5 chip (Homo sapiens, UniProt P01308); test: SPR: direct binding of C-peptide and variants to insulin immobilized on CM5 chip; details: pM-μM, pH 3-7
T2 construct: 28; purchased Novo Nordisk A/S, Denmark Actrapid
T2 sequence (P01308 25-54 limits assumed): as the sequence (P01308 25-54 limits assumed) above
Method: BiacorA Biacore 3000 instrument was employed for the interaction measurements based on surface plasmon resonance (SPR). Interaction analyses were performed at 25° C. in 10 mM Na-citrate buffers pH 3, 4, 5, 10 mM bis-Tris, pH 6, and 10 mM Tris/HC1, pH 7, all buffers containing 100 mM NaCl and 0.005% 5P20. Flow rates for the binding analyses were kept at 20 μl/min. […] Insulin was immobilized on a carboxymethyl-modified dextran surface via both amine and carboxyl coupling, using the surface thiol method, in two different lanes of Biacore CM5 chips. The immobilization was carried out according to the procedure described in the kits. In brief, the sensor chip surface was first washed with 4 M LiCl/HBS for 1 min and then with 0.2% SP20/HBS for 1 mM. The surface was activated according to standard procedure with an injection of 0.05 M NHS/0.2 M EDC for 7 min. Desalted insulin solution was diluted in acetate buffer, pH 4.5, to 20 μg/ml and injected at 50/min for different time intervals. For surface thiol coupling, the surface was first activated with 0.05 M NHS/0.2 M EDC for 2 min followed by a 3 min injection of 40 mM cystamine dihydrochloride and then 0.1 M DTE for 3 min. […] The mixture was incubated for 10 mM at room temperature and excess PDEA was removed on a NAP-10 column. The purified PDEA ligand was injected for 7 min, soon after DTE, and finally the surface was washed with 20 mM PDEA in 0.1 M sodium acetate, 1.0 M NaCl. For quick regeneration of the surface, 2 M guanidine-HC1, pH 6.4, was employed. For controls, lanes activated and deactivated according to the standard procedures were used. For subtraction of noise from the data, running buffer only was injected to all surfaces. […] Similar results where obtained when insulin was injected on C-peptide immobilized on the surface of a streptavidin (SA) chip. Both peptides were injected in concentration ranging from pM-μM at different pH from 3-7. […] This conclusion is compatible with the fact that C-peptide and insulin are joined in proinsulin by covalent bonds rather than binding attachments, and with little ordered structure in the C-peptide part. […] This appears relevant since C-peptide is very negative (−6 charges) with much repulsive forces.

chip-bound C-peptide = target: T3, chip-bound C-peptide (Homo sapiens, UniProt P01308); test: SPR: binding of C-peptide in solution to chip-bound C-peptide
T3 sequence (P01308 57-87 limits assumed): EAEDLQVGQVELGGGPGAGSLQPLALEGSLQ
Method: Similar results where obtained when insulin was injected on C-peptide immobilized on the surface of a streptavidin (SA) chip. Both peptides were injected in concentration ranging from pM-μM at different pH from 3-7. […] This conclusion is compatible with the fact that C-peptide and insulin are joined in proinsulin by covalent bonds rather than binding attachments, and with little ordered structure in the C-peptide part. […] This appears relevant since C-peptide is very negative (−6 charges) with much repulsive forces.

insulin = target: T4, insulin (Homo sapiens, UniProt P01308); test: Non-denaturing nano-electrospray mass spectrometry of insulin, C-peptide and control peptides; format: binding
T4 construct: 28; purchased Novo Nordisk A/S, Denmark Actrapid
T4 sequence (P01308 25-54 limits assumed): as the sequence (P01308 25-54 limits assumed) above
Method: For mass spectrometric analysis, preparation of concentrated insulin stock solution was performed essentially as described [Nettleton et al, 2000, Biophys J. 79:1053]. Briefly, insulin (NovoNordisk A/S, Denmark) was concentrated to 100 μM using ultrafiltration spin-filters (NanoSep, PallGellman, MWCO: 3000 Da). This stock solution was then buffer-exchanged to water, pH 5 (HCl), by extended dialysis. For all experiments, insulin and C-peptide stock solutions were diluted in water-HC1 (pH 5) to reach the indicated concentrations. C-peptide was prepared as a 746 μM stock solution in water and all control peptides were prepared similarly.
Mass spectrometry data were recorded with a QTOF Ultima API instrument (Waters, Milford, Mass.) operated in the positive ion mode. Sample solutions were analyzed by nanoelectrospray from conductive borosilicate glass capillaries (Proxeon Biosystems A/S, Odense, Denmark). Instrument settings were not modified for the observation of non-covalent complexes, other than that the “cone” and the “RF-lens” settings were set to 90 and 50 V, respectively.
The binding between insulin and C-peptide in the gas-phase was studied by non-denaturing electrospray mass spectrometry using a method analogous to that of Nettleton et al [Nettleton et al, 2000, Biophys J. 79:1053].

| Substance | effect on insulin-insulin interaction when injected along with insulin [1] | interaction with immobilized insulin (peptide alone in solution) [2] | effect on insulin-insulin interaction (SPR binding signal) when mixed with insulin ([1]; insulin:peptide 1:1 and 1:5, pH 3-7) | effect of C-peptide on insulin-insulin interaction at pH 4 or 7 ([1]; pH 4 or 7, 10 μM insulin, 50 μM C-peptide) | effect of C-peptide on insulin-insulin interaction at pH 5-6 ([1]; pH 5-6, 10 μM insulin, 50 μM C-peptide) | interaction with immobilized insulin (peptide alone in solution) ([2]; listed as Proinsulin C-peptide) | binding of C-peptide in solution to chip-bound C-peptide (chip-bound C-peptide) | self-aggregation of the peptide in the gas-phase (insulin) | interaction with insulin in nanoESI-MS at 0.3 μM (insulin; 0.3 μM level, 1:1 ratio) | interaction (heterodimer) with insulin in nanoESI-MS (insulin; 3 μM, 1:1 ratio, pH 5) | hexameric insulin charge states in the presence of the peptide (insulin; 30 μM insulin, 30 μM peptide, pH 5) | concentration at which a dimer of the peptide was detected (insulin; gas-phase) | stimulation of SPR-measurable binding in mixture with insulin in the flow-through solution ([1]; Example 10) |
| --- | --- | --- | --- | --- | --- | --- | --- | --- | --- | --- | --- | --- | --- |
| Glu11-Ala: C-peptide analogue in which Glu 11 has been substituted with Ala (EAEDLQVGQVALGGGPGAGSLQPLALEGSLQ) | failed to show any significant increase | showed no interaction with insulin |  |  |  |  |  |  |  |  |  |  |  |
| Proinsulin C-peptide (EAEDLQVGQVELGGGPGAGSLQPLALEGSLQ) |  | not to give any observable binding | higher interaction with immobilized insulin; also recorded: increases the observable SPR binding signal | little effect | Enhanced insulin interaction | showed no interaction with insulin | no evidence for such binding | showed an aggregation tendency | not possible to detect | clearly shows the interaction | no hexameric insulin was detectable; also recorded: absence of insulin hexamers | 3 µM |  |
| Glu27-Ala: C-peptide analogue in which Glu 27 has been substituted with Ala (EAEDLQVGQVELGGGPGAGSLQPLALAGSLQ) | failed to show any significant increase | showed no interaction with insulin |  |  |  |  |  |  |  |  |  |  | did also not stimulate the SPR signal |
